Here are results for two proteins from publication doi:10.1101/2024.05.31.596772, “CAMSAP3 Forms Dimers via its α-helix Domain that Directly Stabilize Non-centrosomal Microtubule Minus Ends” (bioRxiv, 2024).

Usually stoichiometry N stands for a count of units in the complex or per binding partner.

The data set concerns the molecule itself. Put plainly: SEC-MALS; static light detection of the purified GFP-tagged protein; dimer from the mass of the primary peak. For orientation: SEC sorts molecules by how far they enter the pores of the column.

B1: GFP-CAMSAP3 (natural protein, UniProt Q80VC9 1-1252, looked up)
chain: MVEAAPAGSGPLRRTFLVPEIKSLDQYDFSRAKAAASLAWVLRAAFGGAEHVPPELWEPFYTDQYAQEHVKPPVTRLLLSAELYCRAWRQALPQLEPSPSPSALLALLARRGTVPSLPEHPVREADLKHQPILMGAHLAVIDALMVAFSFEWTKTLPGPLALSSLEHKLLFWVDTTVRRLQEKTEQEAAQRASPAAPLDGASPAQPSIRYRKDRAIARRAPCFPNVTTLQDLASGAALAATIHCYCPQLLRLEEVCLKDPMSVADSLYNLQLVQDFCASHLPRGCPLSLEDLLYVPPPLKVNLVVLLAEMYMCFEVLKPDFVQAKDLPDGHAVSPRNTETVPSQNNSGSSSPVFNFRHPLLSPGGPQSPLRGSTGSLKSSPSMSHMEALGKAWNRQLSRPLSQAVSFSTPFGLDSDVDVVMGDPVLLRSVSSDSLGPPRPVSTSSRNSAQPAPESGDLPTIEEALQIIHSAEPRLLPDGAADGSFYLHSPEGLSKPPLSPYPPEGASKPLSDRLNKAPIYISHPENPSKSSPCSTGEILKPPPPSEGSPKAVASSPAANNSEVKMTSFAERKKQLVKAEAESGLGSPTSTPVAPEALSSEMSELGARLEEKRRAIEAQKRRIEAIFAKHRQRLGKSAFLQVQPREAAGEAEEEAELGSVPGGERPAGEGQGEPSLRHKSVTFSPDLGPVPPEGLGDYNRAVSKLSAALSSLQRDMQRLTDQQQRLLAPPEAPGPAPPPAAWVIPGPATGPKAASPSPARRAPAARRSPGPGPSPTPRSPKHARPAELKLAPLTRVLTPPHDVDSLPHLRKFSPSQVPVQTRSSILLSEGTPPEEPTTKPALIEIPLASLGEPAADEEGDGSPPGAEDSLEEEASSEGEPRSGLGFFYKDEDKPEDEMAQKRASLLERQQRRVEEARRRKQWQEAEKEQKREEAARLAQEAPGLAFTTPVVASAAPVATLAPTTRAMAPAEEEVGPRRGDFTRLEYERRAQLKLMDDLDKVLRPRASGTGGPGRGGRRATRPRSGCCDDSALARSPARGLLGSRLSKVYSQSTLSLSTVANEAPNNLGVKRPTSRAPSPSGLMSPSRLPGSRERDWENGSNASSPASVPEYTGPRLYKEPSAKSNKFIIHNALSHCCLAGKVNEPQKNRILEEIEKSKANHFLILFRDSSCQFRALYTLSGETEELSRLAGYGPRTVTPAMVEGIYKYNSDRKRFTQIPAKTMSMSVDAFTIQGHLWQSKKPTTPKKGGGTPK
notes: CAMSAP3 (Nezha), full length; also called Nezha; CAMSAP3 full-length; source: Sf9 cells, purified
For the protein B1, the “stoichiometry N” value amounted to 2.

B2: GFP-CAMSAP3 944F (domain or fragment, UniProt Q80VC9 944-1252, looked up)
chain: AFTTPVVASAAPVATLAPTTRAMAPAEEEVGPRRGDFTRLEYERRAQLKLMDDLDKVLRPRASGTGGPGRGGRRATRPRSGCCDDSALARSPARGLLGSRLSKVYSQSTLSLSTVANEAPNNLGVKRPTSRAPSPSGLMSPSRLPGSRERDWENGSNASSPASVPEYTGPRLYKEPSAKSNKFIIHNALSHCCLAGKVNEPQKNRILEEIEKSKANHFLILFRDSSCQFRALYTLSGETEELSRLAGYGPRTVTPAMVEGIYKYNSDRKRFTQIPAKTMSMSVDAFTIQGHLWQSKKPTTPKKGGGTPK
notes: source: Sf9 cells, purified
Consider B2, for which the “stoichiometry N” value is 2.
